To fix the notation:
B1: TTRAP (TRAF and TNF receptor associated protein), full-length human (other)
chain: MELGSCLEGGREAAEEEGEPEVKKRRLLCVEFASVASCDAAVAQCFLAENDWEMERALNSYFEPPVEESALERRPETISEPKTYVDLTNEETTDSTTSKISPSEDTQQENGSMFSLITWNIDGLDLNNLSERARGVCSYLALYSPDVIFLQEVIPPYYSYLKKRSSNYEIITGHEEGYFTAIMLKKSRVKLKSQEIIPFPSTKMMRNLLCVHVNVSGNELCLMTSHLESTRGHAAERMNQLKMVLKKMQEAPESATVIFAGDTNLRDREVTRCGGLPNNIVDVWEFLGKPKHCQYTWDTQMNSNLGITAACKLRFDRIFFRAAAEEGHIIPRSLDLLGLEKLDCGRFPSDHWGLLCNLDIIL
notes: Protein of 362 amino acids; In the yeast two-hybrid assays it is a fusion expressed from the prey plasmid (pJG45); also called CD40 receptor associated protein
B2: 4F2d2, TTRAP deletion mutant, amino acids 54 to 236 (other)
chain: MERALNSYFEPPVEESALERRPETISEPKTYVDLTNEETTDSTTSKISPSEDTQQENGSMFSLITWNIDGLDLNNLSERARGVCSYLALYSPDVIFLQEVIPPYYSYLKKRSSNYEIITGHEEGYFTAIMLKKSRVKLKSQEIIPFPSTKMMRNLLCVHVNVSGNELCLMTSHLESTRGHAAE
notes: Yeast two-hybrid fusion
B3: FADD (other, UniProt Q13158 1-208, looked up)
chain: MDPFLVLLHSVSSSLSSSELTELKFLCLGRVGKRKLERVQSGLDLFSMLLEQNDLEPGHTELLRELLASLRRHDLLRRVDDFEAGAAAGAAPGEEDLCAAFNVICDNVGKDWRRLARQLKVSDTKIDSIEDRYPRNLTERVRESLRIWKNTEKENATVAHLVGALRSCQMNLVADLVQEVQQARDLQNRSGAMSPMSWNSDASTSEAS
B4: 4F2, TTRAP deletion mutant, amino acids 54 to 362 (other)
chain: MERALNSYFEPPVEESALERRPETISEPKTYVDLTNEETTDSTTSKISPSEDTQQENGSMFSLITWNIDGLDLNNLSERARGVCSYLALYSPDVIFLQEVIPPYYSYLKKRSSNYEIITGHEEGYFTAIMLKKSRVKLKSQEIIPFPSTKMMRNLLCVHVNVSGNELCLMTSHLESTRGHAAERMNQLKMVLKKMQEAPESATVIFAGDTNLRDREVTRCGGLPNNIVDVWEFLGKPKHCQYTWDTQMNSNLGITAACKLRFDRIFFRAAAEEGHIIPRSLDLLGLEKLDCGRFPSDHWGLLCNLDIIL
notes: also called longest TTRAP fragment (aa 54-362); TTRAP/4F2
B5: 4F2d1, TTRAP deletion mutant, amino acids 54 to 140 (other)
chain: MERALNSYFEPPVEESALERRPETISEPKTYVDLTNEETTDSTTSKISPSEDTQQENGSMFSLITWNIDGLDLNNLSERARGVCSYL
notes: Yeast two-hybrid fusion
B6: 4F2d3, TTRAP deletion mutant, amino acids 54 to 273 (other)
chain: MERALNSYFEPPVEESALERRPETISEPKTYVDLTNEETTDSTTSKISPSEDTQQENGSMFSLITWNIDGLDLNNLSERARGVCSYLALYSPDVIFLQEVIPPYYSYLKKRSSNYEIITGHEEGYFTAIMLKKSRVKLKSQEIIPFPSTKMMRNLLCVHVNVSGNELCLMTSHLESTRGHAAERMNQLKMVLKKMQEAPESATVIFAGDTNLRDREVTRC
notes: Yeast two-hybrid fusion
B7: LMP-1 (other)
chain: YYHGQRHSDEHHHDDSLPHPQQATDDSGHESDSNSNEGRHHLLVSGAGDGPPLCSQNLGAPGGGPDNGPQDPDNTDDNGPQDPDNTDDNGPHDPLPQDPDNTDDNGPQDPDNTDDNGPHDPLPHSPSDSAGNDGGPPQLTEEVENKGGDQGPPLMTDGGGGHSHDSGHGGGDPHLPTLLLGSSGSGGDDDDPHGPVQLSYYD
B8: cytoplasmic region of TNF-RII (receptor, UniProt P20333 288-461, looked up)
chain: KKKPLCLQREAKVPHLPADKARGTQGPEQQHLLITAPSSSSSSLESSASALDRRAPTRNQPQAPGVEASGAGEARASTGSSDSSPGGHGTQVNVTCIVNVCSSSDHSSQCSSQASSTMGDTDSSPSESPKDEQVPFSKEECAFRSQLETPETLLGSTEEKPLPLGVPDAGMKPS
notes: domain: cytoplasmic region
B9: cytoplasmic region of CD30 (receptor, UniProt P28908 407-595, looked up)
chain: CHRRACRKRIRQKLHLCYPVQTSQPKLELVDSRPRRSSTQLRSGASVTEPVAEERGLMSQPLMETCHSVGAAYLESLPLQDASPAGGPSSPRDLPEPRVSTEHTNNKIEKIYIMKADTVIVGTVKAELPEGRGLAGPAEPELEEELEADHTPHYPEQETEPPLGSCSDVMLSVEEEGKEDPLPTAASGK
notes: domain: cytoplasmic region

Data set [1] deals with the molecule itself. Briefly: yeast two-hybrid (in Table I: TTRAP prey with 4F2 bait).
The target in data set [2] is B4. Description: yeast two-hybrid, colour formation on X-gal; '-' = none. Here is the method:
(§1) The potential binding of TTRAP to other proteins was assessed using a yeast two-hybrid assay. The experimental outline is similar to the one described for the two-hybrid screening. However, here the plasmids for bait, prey and lacZ reporter were transformed simultaneously into the EGY48 yeast strain. Positive interaction was determined either by the growth phenotype (growth on medium lacking leucine in the presence of galactose, and not in the presence of glucose) or by the blue/white staining on X-gal containing plates (blue colonies only on galactose containing plates, not on glucose containing plates). cDNA's for TRAF2 and for the cytoplasmic regions of CD30, CD40 and TNF-RII were generated by PCR using the pfu polymerase (Promega). PCR fragments encoding RIP, TRADD and FADD were cloned in pCDNA3 (Invitrogen, Carlsbad, Calif.). cDNA of TRAF3 was obtained from the laboratory of Dixit, Dept Pathol., Univ. Michigan Med. School, MI, USA. The color formation was evaluated as strong and fast (++), strong but slow (+), weak and slow (±), none (−) or not determined (nd).

Data set [3] concerns the target B1. The data set is described as above. The method, then: as §1
Data set [4] deals with the molecule itself. Briefly: yeast two-hybrid, colour formation on X-gal (column = prey, row = bait). Here is the method: as §1
Data set [5] addresses B1. The description is as above. Here is the method: as §1
Data set [6] has as its target B8. Description: yeast two-hybrid, colour formation on X-gal; '-' = none. The method, then:
as §1

For data set [7], the target named is B4. Description: yeast two-hybrid, colour formation on X-gal (column = prey, row = bait). Here is the method: as §1
Data set [8] has as its target B2. Briefly: yeast two-hybrid, colour formation on X-gal; '-' = none. The method, then: as §1
For data set [9], the target named is B6. Described as above. Here is the method: as §1

Regarding B1, in data set [1], the binding result is recorded as “binds”.

As for B2, the binding result in data set [2] is on record as “no binding”.

Take B3: the binding result in data set [3] is given as “no binding”.

Consider B4, for which the binding result in data set [4] and in data set [5] was “binds” each time.

As to B5, the binding result in data set [6] and in data set [2] was “no binding” throughout.

B6: the binding result in [2] is given as “no binding”.

For the molecule B7, the binding result in data set [2] and in [3] was “no binding” in each case.

Consider B8, for which the binding result is given as “binds” in data set [7], “binds” in data set [5], “no binding” in data set [8] and “no binding” in [9].

B9: the binding result in data set [7] and in [5] was “binds” each time.

These data come from patent US20050101769A1 (VLAAMS INTERUNIVERSITAIR INSTITUUT VOOR BIOTECHNOLOGIE VZW, published 2005).
